The values that follow are results of earlier work, collected in paper PMC3012698, “Characterization of a Novel Interaction between Bcl-2 Members Diva and Harakiri” (PLoS ONE, 2010).

Read-outs that look alike come from different tables or passages of the source.

Series [1] deals with Mcl-1 (UniProt Q07820).
Series [2] addresses BFL-1 (Homo sapiens) (UniProt Q16548).
For series [3], the target named is Bcl-2 (Homo sapiens) (UniProt P10415).
Another series deals with Bcl-w (Homo sapiens) (UniProt Q92843).
Sequence of Bcl-w (Homo sapiens) (Q92843 2-193): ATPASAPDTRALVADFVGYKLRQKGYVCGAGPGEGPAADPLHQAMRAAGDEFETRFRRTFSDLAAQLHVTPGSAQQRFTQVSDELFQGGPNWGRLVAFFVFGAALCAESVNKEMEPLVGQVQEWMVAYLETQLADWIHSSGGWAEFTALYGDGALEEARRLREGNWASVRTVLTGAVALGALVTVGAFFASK
Series [4] has as its target BFL-1 (Homo sapiens) (UniProt Q16548). This is another data set of the same source.
Series [5] concerns the target Mcl-1 (UniProt Q07820). The source holds these as a separate data set.
The target in series [6] is Bcl-2 (Homo sapiens) (UniProt P10415). This is another data set of the same source.

Sequence of Bcl-2 (Homo sapiens) (P10415 whole entry): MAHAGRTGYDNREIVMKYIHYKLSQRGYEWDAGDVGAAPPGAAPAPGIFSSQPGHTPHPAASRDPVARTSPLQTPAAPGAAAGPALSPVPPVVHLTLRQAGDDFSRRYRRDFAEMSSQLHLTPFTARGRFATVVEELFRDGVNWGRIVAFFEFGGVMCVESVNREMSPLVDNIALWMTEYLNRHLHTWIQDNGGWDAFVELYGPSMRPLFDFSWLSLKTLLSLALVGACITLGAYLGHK
Sequence of BFL-1 (Homo sapiens) (Q16548 whole entry): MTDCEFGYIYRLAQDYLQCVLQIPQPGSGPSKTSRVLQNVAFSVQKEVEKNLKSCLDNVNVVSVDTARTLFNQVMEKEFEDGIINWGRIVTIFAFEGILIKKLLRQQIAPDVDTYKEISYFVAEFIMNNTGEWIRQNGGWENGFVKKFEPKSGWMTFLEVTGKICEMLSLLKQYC
Sequence of Mcl-1 (Q07820 whole entry): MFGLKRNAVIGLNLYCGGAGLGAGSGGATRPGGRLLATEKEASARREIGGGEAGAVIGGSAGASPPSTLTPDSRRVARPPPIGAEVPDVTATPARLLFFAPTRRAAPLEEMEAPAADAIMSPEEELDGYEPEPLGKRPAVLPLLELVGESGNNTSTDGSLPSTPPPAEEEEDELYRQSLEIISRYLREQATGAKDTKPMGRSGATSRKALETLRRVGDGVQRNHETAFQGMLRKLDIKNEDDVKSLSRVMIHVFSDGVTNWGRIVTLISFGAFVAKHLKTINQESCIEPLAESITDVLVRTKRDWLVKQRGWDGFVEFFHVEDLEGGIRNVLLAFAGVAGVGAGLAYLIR
Sequence of Noxa BH3 (Q13794 19-43): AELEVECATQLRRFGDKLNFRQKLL
Sequence of Bik BH3 (Q13323 51-75): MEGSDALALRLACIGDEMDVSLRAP

Regarding Bik BH3 (from UniProt Q13323), the dissociation constant Kd was 0.109 µM in the series with Mcl-1 [1] and greater than 2.5 µM in the series with BFL-1 (Homo sapiens) [2].
For the substance Harakiri BH3 (from UniProt O00198), the dissociation constant Kd in the series with Bcl-2 (Homo sapiens) [3], in the series with Bcl-w (Homo sapiens) and in the series with BFL-1 (Homo sapiens) [4] was greater than 2.5 µM each time.
Take Noxa BH3 (from UniProt Q13794): the equilibrium dissociation constant (Kd) with Mcl-1 [5] was 0.025 µM; with Bcl-2 (Homo sapiens) [6], greater than 2.5 µM.

A word on the Kd: it is the concentration at which binding is half-saturated.
